Results on nine molecules are retold here after patent publication US5503978, “Method for identification of high affinity DNA ligands of HIV-1 reverse transcriptase” (University Research Corporation).

Data set [1] deals with T1, HIV-1 reverse transcriptase (HIV-1, UniProt P04585;P04585 P04585:588-1147,P04585:588-1027). The data set can be described thus: inhibition; Ki' for RNA-dependent DNA polymerase activity. As to conditions: tags: overexpressed in E. coli, purified per Davies et al. 1991. The text has this: (§1) A substrate for the RNA-dependent DNA polymerase activity of HIV-1 RT was assembled by annealing an 18 nucleotide, 5' end-labeled DNA primer to a 30 nucleotide RNA template with a complementary 3' end (see FIG. 10), and purifying the duplex on a 12% non-denaturing acrylamide gel. The primer sequence matched the 3' terminal 18 nucleotides of tRNA^{Lys,3}, responsible for priming minus-strand DNA synthesis of the HIV-1 genome, and the template sequence paralleled the HIV-1 genomic primer binding site and downstream 12 nucleotides. A dilution series of inhibitory ssDNA ligand (to give a final concentration of 0, 1, 3, 9, 27, or 81 nM) was denatured in HRT Buffer at 70° C. for 5 minutes and allowed to renature slowly at 20° C. The primer:template substrate was added to a final concentration of 40 nM, along with dNTP's at 400 µM. The 10 µl reaction was initiated with the addition of either HIV-1, AMV, or MMLV-RT (to give a final concentration of 10 nM), allowed to proceed for 5 minutes at 37° C., and terminated with one volume of formamide. Extension products were separated on an 8% denaturing acrylamide gel and quantitated with an Ambis radioanalytic imager.
The ability of each of the 8 isolates to inhibit the RNA-dependent DNA polymerase activity of HIV-1 RT was assayed by measuring the decrease in extension product formation from a primer:template substrate as a function of inhibitor concentration (FIGS. 10A–10E). The substrate for the inhibition assay was a DNA:RNA heteroduplex consisting of an 18 nucleotide end-labeled DNA primer identical in sequence to the 3' end of tRNA^{Lys,3} annealed to a 30 nucleotide RNA template whose sequence matches the genomic primer binding site and the first twelve transcribed nucleotides. Extension reactions were performed as described in Example 1 in the presence of 0, 81, 27, 9, 3, and 1 nM inhibitor as indicated in FIG. 10.

Data set [2] concerns the target T1, HIV-1 reverse transcriptase. The data set can be described thus: filter; HRT buffer, 6 mM MgCl2, 37 C. To be noted: tags: overexpressed in E. coli, purified per Davies et al. 1991, label: 5'-32P.
The target is the same in data set [3]. Briefly: filter; HRT buffer, 37 C. As to conditions: tags: overexpressed in E. coli, purified per Davies et al. 1991; pseudoknot.
Data set [4] has the same target. Briefly: competition; Kc for displacement of RT1. To be noted: tags: overexpressed in E. coli, purified per Davies et al. 1991; pseudoknot. Here is the method: To test this, we measured the ability of the ssDNA ligand RT1 (SEQ ID NO:71) to maintain its specific binding contacts with HIV-1 RT in the presence of high concentrations of RNA pseudoknot (see FIG. 8). […] The percent of RT1 bound in the presence of competitor relative the percent bound in the absence of competitor is plotted as a function of RNA pk concentration. […] As shown graphically in FIG. 14, when a stoichiometric equivalent of RNA pk was added, approximately one half of the complexed RT1 was displaced, and nearly all was displaced when a large excess of RNA was added. […] However, with this assay we are unable to distinguish between an interaction of both ligands at a common site or an interaction of each at different sites, with a conformational change upon binding the first that prevents subsequent binding of the second.

For data set [5] the target is unchanged. Briefly: filter; nearly as high as full-length RT1. To be noted: tags: overexpressed in E. coli, purified per Davies et al. 1991.
Data set [6] has the same target. Briefly: inhibition; Ki' for RNA-dependent DNA polymerase activity; 37 C, 40 nM primer:template. As to conditions: tags: overexpressed in E. coli, purified per Davies et al. 1991; label: 5'-32P; long interrupted helix with AA/CG internal loop.
Excerpt: as §1, with “imager. […]” for “imager.”

B1: RT36 (ssDNA)
DNA: ATCCGCCTGATTAGCGATACTAAGCTCTTAGTTGATGCGCGGTCAAAATTTAAGCTACTTGAGCAAAATCACCTGCAGGGG
On to B1, for which the affinity in data set [1] (label: 5'-32P, internal loop AA opposite A), expressed as Ki, was 6.5 nM.

B2: RT6 (ssDNA)
DNA: ATCCGCCTGATTAGCGATACTCAGGCGTTAGGGAAGGGCGTCGAAAGCAGGGTGGGACTTGAGCAAAATCACCTGCAGGGG
The molecule B2 yielded a Ki in data set [1] (label: 5'-32P) of 30 nM. Further, the dissociation constant (Kd) in data set [2] was 5 nM.

B3: RT26 (ssDNA)
DNA: ATCCGCCTGATTAGCGATACTTACGTGAGCGTGCTGTCCCCTAAAGGTGATACGTCACTTGAGCAAAATCACCTGCAGGGG
Consider B3, for which, in data set [1] (label: 5'-32P, intramolecular primer:template junction, AA/CG internal loop), the Ki turned out to be 2.7 nM. For the same molecule, in data set [2] (intramolecular primer:template junction, AA/CG internal loop), the dissociation constant (Kd) is approximately 1 nM.

B4: RT8 (ssDNA)
DNA: ATCCGCCTGATTAGCGATACTAGCCAGTCAAGTTAATGGGTGCCATGCAGAAGCAACTTGAGCAAAATCACCTGCAGGGG
B4: the Ki in data set [1] (label: 5'-32P, internal loop CAA opposite TAG) turned out to be 13 nM.

B5: RNA pseudoknot (RNA pk) (ssRNA)
RNA: GGUCCGAAGUGCAACGGGAAAAUGCACU
For the molecule B5, the Ki in data set [1] (pseudoknot) turned out to be 4.7 nM; in data set [4] it was 3 nM. The Kd in data set [3] amounted to 5 nM.

B6: RT4 (ssDNA)
DNA: ATCCGCCTGATTAGCGATACTTTAGCAAAGTTGAAGCCGGACTAACAAGCTCTACGACTTGAGCAAAATCACCTGCAGGGG
B6 had a Ki in data set [1] (label: 5'-32P, internal loop AA opposite AG) of 4.1 nM.

B7: RT10 (ssDNA)
DNA: ATCCGCCTGATTAGCGATACTTATTTGCCCTTGCAGGCCGCAGGAGTGCTAGCAGTACTTGAGCAAAATCACCTGCAGGGG
In the case of B7, the Ki in data set [1] (label: 5'-32P, intramolecular primer:template junction (3' AGGGG paired with CCCCT)) is 62 nM.

B8: RT1t49 (ssDNA)
DNA: ATCCGCCTGAATAGCGATACTCAGAAGGATAAACTGTCCAGAACTTGGA
Regarding B8, the Kd in data set [5] stood at 4 nM.

B9: RT1 (ssDNA)
DNA: ATCCGCCTGATTAGCGATACTCAGAAGGATAAACTGTCCAGAACTTGGAATATATCACTTGAGCAAAATCACCTGCAGGGG
Molecule B9 came in with a Ki in data set [6] of 0.3 nM. In data set [2] (long interrupted helix with AA/CG internal loop), the Kd was approximately 1 nM.
